Source: patent US20250084161A1 (BIOSCEPTRE AUST, published 2025)

Assays:
[1] = target: T1, pDisplay-ECD2 on HEK293 cells (Homo sapiens (Human), UniProt Q99572 47-306); assay: flow cytometry, live HEK293E cells expressing pDisplay-ECD2 ('HEK293E-pDisplay ED'), dAb at 5 uM, detection with anti-human IgG Fab
T1 construct: also called ECD2 as pDisplay; not shown: N-terminal HA tag of pDisplay (told for ECD1); c-Myc tag and PDGFR transmembrane anchorage of pDisplay (told for ECD1)
T1 sequence: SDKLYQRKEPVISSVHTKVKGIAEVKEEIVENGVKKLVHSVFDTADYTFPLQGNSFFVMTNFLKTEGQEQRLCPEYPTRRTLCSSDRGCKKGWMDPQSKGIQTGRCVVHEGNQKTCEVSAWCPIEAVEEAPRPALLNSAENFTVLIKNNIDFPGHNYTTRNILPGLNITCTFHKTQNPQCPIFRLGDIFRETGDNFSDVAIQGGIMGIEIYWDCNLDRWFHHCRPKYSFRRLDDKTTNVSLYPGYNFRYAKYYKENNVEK

E200 peptide [2] = target: T2, E200 peptide; assay: Biacore using E200, dAb-Fc
T2 construct: Made by solid phase synthesis at Chiron Mimotopes; Which form (free, conjugated, biotinylated) was on the chip is told only for some experiments; also called peptide antigen E200; E200-biotin peptide

E200 peptide [3] = target: T2, E200 peptide; assay: Biacore using E200 (10RU), dAb-Fc at 100 pM to 1 nM
[4] = target: T3, ECD2, P2X7 receptor (47-306), soluble (Homo sapiens (Human), UniProt Q99572 47-306); assay: Biacore against ECD2 in either solution form or as a ECD-Fc construct; Fc format; ECD2 in solution or as ECD-Fc, form not told
T3 construct: also called soluble ECD2; ECD2 domain
T3 sequence: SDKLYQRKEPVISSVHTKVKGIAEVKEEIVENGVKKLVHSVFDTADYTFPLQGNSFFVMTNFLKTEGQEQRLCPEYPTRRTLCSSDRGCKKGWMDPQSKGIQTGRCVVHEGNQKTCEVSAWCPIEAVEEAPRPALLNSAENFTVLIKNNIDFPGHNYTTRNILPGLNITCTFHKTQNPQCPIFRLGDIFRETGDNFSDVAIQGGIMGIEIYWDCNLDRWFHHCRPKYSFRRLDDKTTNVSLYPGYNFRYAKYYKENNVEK

[5] = target: T3, ECD2, P2X7 receptor (47-306), soluble; assay: Biacore against ECD2 in either solution form or as a ECD-Fc construct; Fc format taken from context
[6] = target: T3, ECD2, P2X7 receptor (47-306), soluble; assay: single domain format; method not given
E200 peptide [7] = target: T2, E200 peptide; assay: Biacore, E200 peptide
[8] = target: T3, ECD2, P2X7 receptor (47-306), soluble; assay: Biacore against ECD2 in either solution form or as a ECD-Fc construct; Fc construct
[9] = target: T3, ECD2, P2X7 receptor (47-306), soluble; assay: Biacore, dAb domain without Fc; dAb domain, no Fc format
[10] = target: T3, ECD2, P2X7 receptor (47-306), soluble; assay: Biacore, labelled dAb domain at 5 and 2.5 nM; target taken as ECD2 from the sentence before; Alexa488-labelled dAb domain
[11] = target: T3, ECD2, P2X7 receptor (47-306), soluble; assay: Biacore, labelled dAb domain at 10 and 5 nM; target taken as ECD2 from the paragraph before; Alexa488-labelled dAb domain, different parent

B1: 42.2 (other)
VH single domain (dAb): EVQMLESGGGLVQPGESLRLSCAASGFTFDNVEMSWVRQAPGKGLEWVSSIGSKGEYTYYADSVKGRFTISRDNSKNTLYLQMNSPRAEDTAVYYCAQTVNVPEPAFAYWGQGTLVTVSS
notes: also called PEP2-42-2; PEP2-42-2 dAb
- binding result [1]: binds

B2: PEP2-42 Fc (Fc fusion)
chain: EVQLLESGGGLVQPGGSLRLSCAASGFTFDNVEMSWVRQAPGKGLEWVSSIGSKGEDTYYADSVKGRFTISRDNSKNTLYLQMNSLRAEDTAVYYCAQTVNVPEPAFAYWGQGTLVTVSS
notes: Standard format dAb-Fc with human type IgG1 Fc subtype; also called 2-42 (PEP-Fc); not shown: human IgG1 Fc
- Kd (E200 peptide [2]): 5.5 nM

B3: PEP2-47 Fc (Fc fusion)
chain: EVQLLESGGGLVQPGGSLRLSCAASGFTFPMKDMGWVRQAPGKGLEWVSAISGSGGSTYYADSVKGRFTISRDNSKNTLYLQMNSLRAEDTAVYYCAEPSHFDRPFDYWGQGTLVTVSS
notes: Standard format dAb-Fc with human type IgG1 Fc subtype; also called 2-47 (PEP-Fc); not shown: human IgG1 Fc
- Kd (E200 peptide [2]): 7.5 nM

B4: PEP2-47-1 Fc (Fc fusion)
chain: EVQLLESGGGLVQPGGSLRLSCAASGYTFPMKDMGWVRQAPGKGLEWVSAISGSGGGTYYADSVKGRFTISRDNSKNTLYLQMNSLRAEDTAVYYCAEPSHFDRPFDYRSQGTLVTVSS
notes: Standard format dAb-Fc with human type IgG1 Fc subtype; also called 2-47-1 (PEP-Fc); not shown: human IgG1 Fc
- Kd (E200 peptide [2]): 0.11 nM

B5: 2.4 (other)
VH single domain (dAb): EVQLLESGGGLVQPGGSLRLTCAASGFSFRNHDMGWVRQAPGKGLEWVSAISGSGGSTYYADSVKGRFTISRDNSKNTLYLQMNSLRAEDTAVYYCAEPKPMDTEFDYRSPGTLVTVSS
notes: Read as PEP2-2-4, in line with '2' = PEP2-2 and '47.1' = PEP2-47-1; it is not PEP2-4; also called PEP2-2-4; PEP2-2-4 dAb
- binding result [1]: binds

B6: PEP2-2-2 Fc (Fc fusion)
chain: EVQLLESGGGLVQPGGSLRLSCAASGFTFRNHDMGWVRQAPGKGLEWVSAISGSGGSTYYADSVKGRFTISRDNSKNTLYLQMNSLRAEDTAVYYCAEPKPMDTEFDYRSQGTLVTVSS
notes: Standard format dAb-Fc with human type IgG1 Fc subtype; also called 2-2-2 (PEP-Fc); not shown: human IgG1 Fc
- Kd (E200 peptide [2]): 0.1 nM

B7: PEP2-2-3 Fc (Fc fusion)
chain: EVQLLESGGGLVQPGGSLRLSCAASGFTFRNHDMGWVRQAPGKGLEWVSAISGSGGSTYYADSVKGRFTISRDNSKNTLYLQMNSLRAEDTAVYYCAEPKPMDTEFDYWSPGTLVTVSS
notes: Standard format dAb-Fc with human type IgG1 Fc subtype; also called 2-2-3 (PEP-Fc); not shown: human IgG1 Fc
- Kd (E200 peptide [3]): 0.13 nM
- Kd [4]: 1.5 nM

B8: PEP2-247-2 Fc (Fc fusion)
chain: EVQLLESGGGLVQPGGSLRLSCAASGFTFRNHDMGWVRQAPGKGLEWVSAISGSGGSTYYANSVKGRFTISRDNSKNTLYLQMNSLRAEDTAVYYCAEPSHFDRPFDYRSQGTLVTVSS
notes: Standard format dAb-Fc with human type IgG1 Fc subtype; also called 2-247-2 (PEP-Fc); 2-2-1/2-47-1 CDR crossover; not shown: human IgG1 Fc
- Kd (E200 peptide [2]): 0.45 nM

B9: PEP2-2-1-1 Fc (Fc fusion)
chain: EVQLLESGGGLVQPGGSLRLSCAASGFTFRNHDMGWVRQAPGKGLEWVSAISGSGGSTYYADSVKGRFTISRDNSKNTLYLQMNSLRAEDTAVYYCAEPKPMDTEFDYRSPGTLVTVSS
notes: Standard format dAb-Fc with human type IgG1 Fc subtype; also called 2-2-1-1 (PEP-Fc); not shown: human IgG1 Fc
- Kd (E200 peptide [2]): 0.09 nM

B10: PEP2-247-1 Fc (Fc fusion)
chain: EVQLLESGGGLVQPGGSLRLSCAASGFTFRNHDMGWVRQAPGKGLEWVSAISGSGGGTYYADSVKGRFTISRDNSKNTLYLQMNSLRAEDTAVYYCAEPSHFDRPFDYRSQGTLVTVSS
notes: Standard format dAb-Fc with human type IgG1 Fc subtype; also called 2-247-1 (PEP-Fc); 2-2/2-47-1 CDR crossover; not shown: human IgG1 Fc
- Kd (E200 peptide [2]): 0.19 nM

B11: PEP2-472-1 Fc (Fc fusion)
chain: EVQLLESGGGLVQPGGSLRLSCAASGYTFPMKDMGWVRQAPGKGLEWVSAISGSGGGTYYADSVKGRFTISRDNSKNTLYLQMNSLRAEDTAVYYCAEPKPMDTEFDYRSQGTLVTVSS
notes: Standard format dAb-Fc with human type IgG1 Fc subtype; also called 2-47-1/2-2-2 CDR crossover; not shown: human IgG1 Fc
- Kd [5]: 0.584 nM
- Kd (E200 peptide [2]): 0.09 nM

B12: 47.1 (other)
VH single domain (dAb): EVQLLESGGGLVQPGGSLRLSCAASGYTFPMKDMGWVRQAPGKGLEWVSAISGSGGGTYYADSVKGRFTISRDNSKNTLYLQMNSLRAEDTAVYYCAEPSHFDRPFDYRSQGTLVTVSS
notes: also called PEP2-47-1; PEP2-47-1 dAb
- binding result [1]: binds

B13: PEP2-47 dAb (other)
VH: EVQLLESGGGLVQPGGSLRLSCAASGFTFPMKDMGWVRQAPGKGLEWVSAISGSGGSTYYADSVKGRFTISRDNSKNTLYLQMNSLRAEDTAVYYCAEPSHFDRPFDYWGQGTLVTVSS
notes: Human VH dAb, unformatted
- binding result [6]: binds

B14: PEP2-2-3 dAb (other)
VH: EVQLLESGGGLVQPGGSLRLSCAASGFTFRNHDMGWVRQAPGKGLEWVSAISGSGGSTYYADSVKGRFTISRDNSKNTLYLQMNSLRAEDTAVYYCAEPKPMDTEFDYWSPGTLVTVSS
notes: Human VH dAb, unformatted; also called unformatted dAb PEP2-2-3
- Kd (E200 peptide [7]): 7 nM

B15: PEP2-2-1 Fc (Fc fusion)
chain: EVQLLESGGGLVQPGGSLRLSCAASGFTFRNHDMGWVRQAPGKGLEWVSAISGSGGSTYYANSVKGRFTISRDNSKNTLYLQMNSLRAEDTAVYYCAEPKPMDTEFDYRSPGTLVTVSS
notes: Standard format dAb-Fc with human type IgG1 Fc subtype; also called PEP2-2-1 dAb-FC; not shown: human IgG1 Fc
- Kd [8]: 0.56 nM

B16: PEP2-2-12 dAb domain (other)
VH: EVQLLESGGGLVQPGGSLRLSCAASGFTFRNHDMGWVRQAPGKGLEWVSAISGSGGSTYYANSVKGRFTISRDNSKNTLYLQMNSLRAEDTAVYYCAEPKPMDTEFDYPSPGTLVTVSS
notes: Human VH dAb domain, no Fc format
- Kd [9]: 0.945 nM

B17: PEP2-2-12Alexa488 domain (other)
VH: EVQLLESGGGLVQPGGSLRLSCAASGFTFRNHDMGWVRQAPGKGLEWVSAISGSGGSTYYANSVKGRFTISRDNSKNTLYLQMNSLRAEDTAVYYCAEPKPMDTEFDYPSPGTLVTVSS
modifications: Alexa488 label attached (site not stated)
notes: Human VH dAb domain, labelled; also called PEP2-2-12 with Alexa488 label
- Kd [10]: 0.174 nM

B18: 2.5 (other)
VH single domain (dAb): EVQLLESGGGLVQPGGSLRLSCAASGFTFRNHDMGWVRQAPGKGLEWVSAISGSGGSTYYADSVKGRFTISRDDSKNTLYLQMNSLRAEDTAVYYCAEPKPMDTEFDYRSPGTLVTVSS
notes: Read as PEP2-2-5; it is not PEP2-5; also called PEP2-2-5; PEP2-2-5 dAb
- binding result [1]: binds

B19: PEP2-472-12Alexa488 domain (other)
VH: EVQLLESGGGLVQPGGSLRLSCAASGYTFPMKDMGWVRQAPGKGLEWVSAISGSGGGTYYADSVKGRFTISRDNSKNTLYLQMNSLRAEDTAVYYCAEPKPMDTEFDYRSPGTLVTVSS
modifications: Alexa488 label attached (site not stated)
notes: Human VH dAb domain, labelled
- Kd [11]: 0.156 nM
